Laboratory results: publication PMC3512392 (The EMBO Journal, 2012)

Target: the molecule itself
Test: crystal structure

B1: SNX1 (301–522) (domain or fragment)
chain: KMNESDIWFEEKLQEVECEEQRLRKLHAVVETLVNHRKELALNTAQFAKSLAMLGSSEDNTALSRALSQLAEVEEKIEQLHQEQANNDFFLLAELLSDYIRLLAIVRAAFDQRMKTWQRWQDAQATLQKKREAEARLLWANKPDKLQQAKDEILEWESRVTQYERDFERISTVVRKEVIRFEKEKSKDFKNHVIKYLETLLYSQQQLAKYWEAFLPEAKAIS
Does B1 bind?
Result: binds
